Measured values as given in paper PMC11044049 (The Journal of Biological Chemistry, 2024).
Substitutions are numbered along the chain they refer to. Numbers in names are those of the source.

B1: γ subunit of the E. coli clamp loader (residues 1-373) (domain or fragment, UniProt P06710 1-373, looked up)
chain: MSYQVLARKWRPQTFADVVGQEHVLTALANGLSLGRIHHAYLFSGTRGVGKTSIARLLAKGLNCETGITATPCGVCDNCREIEQGRFVDLIEIDAASRTKVEDTRDLLDNVQYAPARGRFKVYLIDEVHMLSRHSFNALLKTLEEPPEHVKFLLATTDPQKLPVTILSRCLQFHLKALDVEQIRHQLEHILNEEHIAHEPRALQLLARAAEGSLRDALSLTDQAIASGDGQVSTQAVSAMLGTLDDDQALSLVEAMVEANGERVMALINEAAARGIEWEALLVEMLGLLHRIAMVQLSPAALGNDMAAIELRMRELARTIPPTDIQLYYQTLLIGRKELPYAPDRRMGVEMTLLRALAFHPRMPLPEPEVPRQ
notes: γ subunit of the E. coli clamp loader, truncated form, residues 1-373; Stands for the single γ subunits within the γ-complex; also called γ protein; B, C and D subunits; source: E. coli BLR21(DE3), purified (HisTrap, Prescission Protease, HisTrap flowthrough); not shown: His6, N-terminal, cleaved
B2: γ-K141A (domain or fragment, E. coli, UniProt P06710 1-373, looked up)
chain: B1 chain with K141A
notes: γ subunit of the E. coli clamp loader with K141A; insert bought from Twist Bioscience; the range 1-373 is stated for the γ subunit in general; The limits 1-373 are not repeated for the mutant itself; source: E. coli BLR21(DE3), purified (Nickel NTA agarose, Prescission Protease, HisTrap); not shown: His6, N-terminal, cleaved

How the values were obtained:
[1] = molecular target: the molecule itself; test: cryo-EM structure; 2.5 μM clamp loader and 2.2 μM sliding clamp, 1 mM ADP·BeFx, cross-linked with 1 mM BS3; 25 mM HEPES-NaOH pH 8.0, 200 mM NaCl, 4 mM MgCl2, 1 mM TCEP; Semi-Open and Fully-Open states
[2] = molecular target: the molecule itself; test: reconstitution and co-elution on anion exchange (HiTrap Q); purified γ (WT or K141A), δ and δ′ (WT or K130A) combined 2.5:1:1, dialysed into Buffer Q-A (50 mM Tris pH 7.5, 50 mM NaCl, 10% glycerol, 2 mM DTT) overnight at 4 °C, eluted from a HiTrap Q column with a NaCl gradient; fractions with the intact complex pooled

| Protein | binding result [1] | binding result [2] |
| --- | --- | --- |
| B1 | binds |  |
| B2 |  | binds |
